The target of assay [1] is T1, factor XIa (UniProt P03951 19-625).
T1 construct: also called fXIa; FXIa
Kind of assay: SPR, Ir-CPI immobilised; two-state model, global equilibrium constant K = ka1ka2/kd1kd2. A general note: Surface plasmon resonance follows binding to a sensor surface in real time, without labels.

Assay [2] deals with T2, plasma kallikrein (UniProt P03952 20-638).
T2 construct: The active enzyme is the cleaved two-chain form of the precursor
The description is as above.

Assay [3] has as its target T3, plasmin (UniProt P00747 97-810). The assay is described as above.
The target of assay [4] is T1, factor XIa. As to the kind of experiment: SPR, Ir-CPI immobilised; two-state model, backward rate of the conformation change.
In assay [5] the target is T2, plasma kallikrein. Described as above.
Assay [6] deals with T3, plasmin. The assay is described as above.
For assay [7], the target named is T1, factor XIa. As to the kind of experiment: SPR (BIAcore X), Ir-CPI immobilised at about 200 RU, factor injected at 5-300 nM; two-state model, ka1 (first step).
For assay [8], the target named is T2, plasma kallikrein. The assay is described as above.
The target of assay [9] is T3, plasmin. The assay is described as above.
Another assay deals with T4, thrombin (UniProt P00734 328-622).
T4 construct: also called factor IIa; IIa
As to the kind of experiment: SPR (BIAcore X), Ir-CPI immobilised at 1500 RU on CM5, factor injected.

The target in assay [10] is T5, high molecular weight kininogen (UniProt P01042 19-644).
T5 construct: also called HMWK
T5 sequence (looked up): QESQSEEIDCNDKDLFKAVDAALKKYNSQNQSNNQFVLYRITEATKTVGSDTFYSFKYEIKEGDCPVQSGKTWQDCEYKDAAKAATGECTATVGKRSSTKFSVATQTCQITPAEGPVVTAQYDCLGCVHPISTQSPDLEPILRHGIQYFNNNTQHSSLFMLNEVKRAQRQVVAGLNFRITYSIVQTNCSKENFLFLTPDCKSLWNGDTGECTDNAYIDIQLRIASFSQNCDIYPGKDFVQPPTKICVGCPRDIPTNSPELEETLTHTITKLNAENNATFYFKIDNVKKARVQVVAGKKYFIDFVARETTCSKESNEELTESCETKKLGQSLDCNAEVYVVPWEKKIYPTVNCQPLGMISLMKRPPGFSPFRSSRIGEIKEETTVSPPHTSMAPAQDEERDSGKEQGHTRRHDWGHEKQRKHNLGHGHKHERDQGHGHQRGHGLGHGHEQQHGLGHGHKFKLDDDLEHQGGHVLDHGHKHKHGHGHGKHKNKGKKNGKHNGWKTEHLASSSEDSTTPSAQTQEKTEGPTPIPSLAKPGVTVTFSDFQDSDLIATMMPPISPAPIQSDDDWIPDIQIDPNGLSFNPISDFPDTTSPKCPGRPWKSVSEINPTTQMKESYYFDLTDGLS
The description is as above.

The next assay deals with T6, factor IX (UniProt P00740 47-461).
T6 construct: Zymogen; also called fIX
The assay is described as above.

In a further assay the target is T7, plasminogen (UniProt P00747 20-810, limits assumed).
T7 construct: Zymogen
T7 sequence (P00747 20-810 limits assumed): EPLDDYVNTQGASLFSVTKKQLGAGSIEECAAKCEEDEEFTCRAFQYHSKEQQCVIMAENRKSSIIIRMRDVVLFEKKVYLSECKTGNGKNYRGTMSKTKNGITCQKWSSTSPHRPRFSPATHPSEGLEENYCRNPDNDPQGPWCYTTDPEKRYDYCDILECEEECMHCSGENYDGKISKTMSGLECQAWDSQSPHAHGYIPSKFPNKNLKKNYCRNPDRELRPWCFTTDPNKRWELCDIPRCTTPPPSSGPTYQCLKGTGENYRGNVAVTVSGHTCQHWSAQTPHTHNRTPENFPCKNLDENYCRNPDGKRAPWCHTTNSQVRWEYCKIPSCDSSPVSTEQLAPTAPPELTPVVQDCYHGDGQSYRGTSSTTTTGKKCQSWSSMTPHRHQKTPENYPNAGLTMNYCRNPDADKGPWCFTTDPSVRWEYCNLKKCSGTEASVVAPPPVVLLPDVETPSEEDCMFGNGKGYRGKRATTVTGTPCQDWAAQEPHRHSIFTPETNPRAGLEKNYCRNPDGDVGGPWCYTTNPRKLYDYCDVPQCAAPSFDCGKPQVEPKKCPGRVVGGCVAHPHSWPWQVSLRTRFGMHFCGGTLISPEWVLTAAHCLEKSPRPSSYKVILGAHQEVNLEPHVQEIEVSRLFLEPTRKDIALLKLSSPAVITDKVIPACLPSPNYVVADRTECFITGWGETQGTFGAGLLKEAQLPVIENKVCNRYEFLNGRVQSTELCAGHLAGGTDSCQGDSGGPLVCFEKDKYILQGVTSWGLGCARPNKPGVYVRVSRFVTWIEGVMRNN
The assay is described as above.

A further assay deals with T8, factor VIIa (UniProt P08709 61-466).
T8 construct: also called fVIIa; FVIIa
T8 sequence (looked up): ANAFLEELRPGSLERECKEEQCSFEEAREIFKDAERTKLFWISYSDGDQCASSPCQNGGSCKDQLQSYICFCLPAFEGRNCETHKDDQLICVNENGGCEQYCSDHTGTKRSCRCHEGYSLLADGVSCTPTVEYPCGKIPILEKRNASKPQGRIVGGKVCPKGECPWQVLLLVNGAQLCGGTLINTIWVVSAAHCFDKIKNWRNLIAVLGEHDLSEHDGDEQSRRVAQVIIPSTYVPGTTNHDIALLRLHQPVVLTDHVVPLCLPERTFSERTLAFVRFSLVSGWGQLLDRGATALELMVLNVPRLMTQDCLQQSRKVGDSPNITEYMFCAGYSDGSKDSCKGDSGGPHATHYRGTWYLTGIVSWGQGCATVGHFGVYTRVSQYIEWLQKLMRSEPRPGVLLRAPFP
Described as above.

Another assay has as its target t-PA (UniProt P00750 36-562). Described as above.
In another assay the target is T9, factor X (UniProt P00742 41-488).
T9 construct: Zymogen; also called fX
Described as above.

Assay [11] deals with T1, factor XIa. Kind of assay: SPR (BIAcore X), Ir-CPI immobilised at about 200 RU, factor injected at 5-300 nM; two-state model, kd1 (first step).
For assay [12], the target named is T2, plasma kallikrein. The assay is described as above.
Assay [13] deals with T3, plasmin. Described as above.
Assay [14] has as its target T1, factor XIa. Kind of assay: SPR, Ir-CPI immobilised; two-state model, forward rate of the conformation change.
Assay [15] addresses T2, plasma kallikrein. The assay is described as above.
The target of assay [16] is T3, plasmin. The description is as above.

T2 sequence (P03952 20-638 limits assumed): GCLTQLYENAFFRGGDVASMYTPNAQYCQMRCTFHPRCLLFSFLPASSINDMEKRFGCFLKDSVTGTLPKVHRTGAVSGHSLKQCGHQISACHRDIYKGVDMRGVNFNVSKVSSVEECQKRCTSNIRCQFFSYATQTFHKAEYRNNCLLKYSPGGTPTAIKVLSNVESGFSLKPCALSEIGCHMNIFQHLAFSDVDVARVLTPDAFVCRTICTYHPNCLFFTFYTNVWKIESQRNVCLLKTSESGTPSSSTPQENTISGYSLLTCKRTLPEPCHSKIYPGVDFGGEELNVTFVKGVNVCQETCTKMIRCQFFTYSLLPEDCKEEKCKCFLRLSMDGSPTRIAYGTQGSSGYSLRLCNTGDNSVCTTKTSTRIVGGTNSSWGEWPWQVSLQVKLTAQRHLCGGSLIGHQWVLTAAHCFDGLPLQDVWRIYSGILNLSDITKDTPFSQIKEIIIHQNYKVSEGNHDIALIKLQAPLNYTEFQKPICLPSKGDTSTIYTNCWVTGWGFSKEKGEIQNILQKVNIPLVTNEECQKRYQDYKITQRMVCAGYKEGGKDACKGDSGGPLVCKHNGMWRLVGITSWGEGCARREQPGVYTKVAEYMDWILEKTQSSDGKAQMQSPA
T3 sequence (P00747 97-810 limits assumed): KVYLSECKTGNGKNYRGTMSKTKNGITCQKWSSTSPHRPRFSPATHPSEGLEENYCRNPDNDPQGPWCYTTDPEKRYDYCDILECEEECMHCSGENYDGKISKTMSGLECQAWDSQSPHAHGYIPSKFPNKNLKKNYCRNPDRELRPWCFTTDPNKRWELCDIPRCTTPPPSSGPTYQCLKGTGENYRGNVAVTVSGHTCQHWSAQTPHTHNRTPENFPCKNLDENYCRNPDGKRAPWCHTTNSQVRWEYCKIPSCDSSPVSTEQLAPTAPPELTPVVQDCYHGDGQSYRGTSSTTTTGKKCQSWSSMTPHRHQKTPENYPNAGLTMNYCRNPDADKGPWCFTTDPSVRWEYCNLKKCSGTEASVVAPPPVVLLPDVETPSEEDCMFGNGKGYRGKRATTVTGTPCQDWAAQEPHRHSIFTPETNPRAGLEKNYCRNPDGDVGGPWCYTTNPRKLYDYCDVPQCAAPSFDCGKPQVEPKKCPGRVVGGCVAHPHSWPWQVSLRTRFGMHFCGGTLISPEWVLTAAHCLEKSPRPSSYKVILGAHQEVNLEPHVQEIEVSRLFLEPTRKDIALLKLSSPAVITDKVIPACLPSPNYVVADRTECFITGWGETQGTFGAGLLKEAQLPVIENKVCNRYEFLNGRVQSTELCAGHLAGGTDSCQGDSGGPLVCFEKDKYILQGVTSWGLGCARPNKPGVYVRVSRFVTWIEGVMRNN
t-PA, sequence (P00750 36-562 limits assumed): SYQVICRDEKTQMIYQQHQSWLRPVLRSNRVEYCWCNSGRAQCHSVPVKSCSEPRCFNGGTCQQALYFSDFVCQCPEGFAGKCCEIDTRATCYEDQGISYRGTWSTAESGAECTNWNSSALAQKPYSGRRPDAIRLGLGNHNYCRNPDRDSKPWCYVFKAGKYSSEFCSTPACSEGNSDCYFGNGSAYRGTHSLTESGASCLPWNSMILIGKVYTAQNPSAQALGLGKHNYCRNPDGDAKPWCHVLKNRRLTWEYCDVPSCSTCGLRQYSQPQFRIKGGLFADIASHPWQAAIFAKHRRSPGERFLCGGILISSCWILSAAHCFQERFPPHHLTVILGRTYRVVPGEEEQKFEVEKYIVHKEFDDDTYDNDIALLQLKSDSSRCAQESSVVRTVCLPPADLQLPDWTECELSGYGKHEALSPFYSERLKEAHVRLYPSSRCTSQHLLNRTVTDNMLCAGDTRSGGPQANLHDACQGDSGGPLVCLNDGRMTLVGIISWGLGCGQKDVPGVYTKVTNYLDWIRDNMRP

B1: Ir-CPI (other)
chain: ANHKGRGRPAKCKLPPDDGPCRARIPSYYFDRKTKTCKEFMYGGCEGNENNFENITTCQEECRAKKV
notes: Expressed in E. coli as a GST fusion (pGEX-6P-1), released with PreScission protease and purified by gel filtration; Immobilised on a CM5 chip by amine coupling in the SPR assays; also called recombinant Ir-CPI
B1: the Ka was 3.83e+08 M⁻¹ with factor XIa [1], 4.51e+06 M⁻¹ with plasma kallikrein [2] and 3.3e+08 M⁻¹ in the assay with plasmin [3]. For the same molecule, the kd2 amounted to 0.00232 s⁻¹ with factor XIa [4], 0.00142 s⁻¹ in the assay with plasma kallikrein [5] and 0.00614 s⁻¹ with plasmin [6]. Further, the kon was determined as 2.31e+06 M⁻¹ s⁻¹ with factor XIa [7], 34900 M⁻¹ s⁻¹ with plasma kallikrein [8] and 900000 M⁻¹ s⁻¹ with plasmin [9]. Besides, the binding result (with thrombin; in assay [10]; with factor IX; with plasminogen; with factor VIIa; in the assay with t-PA) was “no binding (tested: 100 nM)” in each case. For the same molecule, in the assay with factor X, the binding result is recorded as “no binding (tested: 100 nM)”. The koff came out at 0.102 s⁻¹ with factor XIa [11], 0.0532 s⁻¹ in the assay with plasma kallikrein [12] and 0.00535 s⁻¹ with plasmin [13]. Further, the results for the ka2 in the assay with factor XIa [14], in the assay with plasma kallikrein [15] and in the assay with plasmin [16] were 0.0298 s⁻¹, 0.00834 s⁻¹ and 0.00582 s⁻¹, respectively.

Usually kon stands for the second-order rate constant of association. A low value points to slow association. Usually koff stands for a measure of how fast the partners let go of each other.
